According to the supplement of paper PMC10126150:
± gives the standard deviation of the averaged measurements.

System: ATP
Test: switch fluorescence ratio, 500 uM ATP over buffer (Cy3 cluster intensity, sum of 5 cycles each) (fold (ratio)); higher = stronger signal-on switching upon ATP binding; sequences stand for … in TCGTCGGCAGCGTCAGATGTGTATAAGAGACAGTTTTTTTTTTTTTTTTTTTTTTTTT…TC
Conditions: aptamer strand: ATP DNA aptamer (quencher-CACCTGGGGGAGTATTGCGGAGGAAGG + anchor), 100 nM annealed; ATP concentration: 500 uM
Procedure, shortened: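 Values give the fluorescence ratio for each switch-domain sequence, averaged from per-cluster ratios of summed target-cycle to summed buffer-cycle Cy3 intensity. The Cy3-labelled switching-strand clusters sat on a modified Illumina MiSeq flow-cell, were annealed to 100 nM quencher-labelled ATP aptamer, and were imaged in selection buffer, then after 15 min with 500 uM ATP at 22 °C. Five cycles ran with NaOH stripping and re-annealing between them, and clusters outside 100-1000 RFU were excluded.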
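Note: ATP exposure 15 min at 22 °C before imaging.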

Row | Sequence | switch fluorescence ratio
1 | CGAGTACGGT | 0.979 ± 0.028
2 | CGAGTAGGGG | 1.01 ± 0.025
3 | CGAGTATGAA | 0.989 ± 0.06
4 | CGAGTCAGTT | 0.992 ± 0.029
5 | CGAGTCCAAG | 1.01 ± 0.026
6 | CGAGTTAAGC | 0.965 ± 0.02
7 | CGAGTTGGCT | 1 ± 0.032
8 | CGAGTTGTTG | 1.014 ± 0.0072
9 | CGAGTTGTTT | 1 ± 0.03
10 | CGATAAGAAG | 1.01 ± 0.017
11 | CGATAAGCGG | 1.02 ± 0.035
12 | CGATACCGTG | 1.007 ± 0.0044
13 | CGATACGATT | 1.06 ± 0.076
14 | CGATAGTATA | 1.007 ± 0.0082
15 | CGATATGTTC | 1.01 ± 0.018
16 | CGATCCGGGC | 1.05 ± 0.043
17 | CGATCCTTTT | 1.05 ± 0.029
18 | CGATCGGGAT | 1.12 ± 0.13
19 | CGATCTTACG | 0.9935 ± 0.0069
20 | CGATCTTGGA | 0.94 ± 0.065
21 | CGATGAATTC | 1.07 ± 0.048
22 | CGATGAATTG | 0.981 ± 0.023
23 | CGATGAGGGG | 0.967 ± 0.03
24 | CGATGAGTAA | 1 ± 0.029
25 | CGATGCAGTT | 1.05 ± 0.041

Row | Sequence | switch fluorescence ratio
26 | CGATGCGAAG | 1.02 ± 0.035
27 | CGATGGATGG | 1.01 ± 0.037
28 | CGATGGCGGG | 1.02 ± 0.071
29 | CGATGGGGAC | 1.14 ± 0.019
30 | CGATGGGGTA | 1.01 ± 0.044
31 | CGATGGTGTT | 1.01 ± 0.035
32 | CGATGTAGGC | 1.05 ± 0.088
33 | CGATGTCGTA | 1.03 ± 0.034
34 | CGATGTCTCT | 0.973 ± 0.047
35 | CGATGTTTTT | 0.957 ± 0.029
36 | CGATTATTTC | 0.983 ± 0.0096
37 | CGATTCGCAG | 1.25 ± 0.096
38 | CGATTCTTGG | 0.99932 ± 5.1e-05
39 | CGATTGCATG | 1.05 ± 0.017
40 | CGATTGGGGG | 1.01 ± 0.018
41 | CGATTTATGT | 0.9925 ± 0.0057
42 | CGATTTCTCT | 0.973 ± 0.04
43 | CGATTTTCAT | 0.988 ± 0.013
44 | CGATTTTGGC | 0.962 ± 0.049
45 | CGATTTTGGT | 0.9633 ± 0.0038
46 | CGATTTTTTG | 1 ± 0.019
47 | CGCAAATCAA | 1.38 ± 0.073
48 | CGCAATTGAG | 3.38 ± 0.17
49 | CGCAATTGTT | 2.49 ± 0.55
50 | CGCACGGGTC | 1.11 ± 0.038

Row | Sequence | switch fluorescence ratio
51 | CGCAGAGCAA | 2.538 ± 0.0049
52 | CGCAGGCACG | 1.07 ± 0.052
53 | CGCAGTCTGT | 1.12 ± 0.012
54 | CGCATCAAGT | 1.01 ± 0.031
55 | CGCATCCTTG | 1.03 ± 0.027
56 | CGCCCCAGTG | 3.02 ± 1.8
57 | CGCCCCTGGG | 1.13 ± 0.18
58 | CGCCCTTGGC | 1.07 ± 0.036
59 | CGCCGAGATT | 1.08 ± 0.058
60 | CGCCGATATA | 1.12 ± 0.063
61 | CGCCGCTGGG | 1.993 ± 0.0075
62 | CGCCGGCGGG | 0.978 ± 0.034
63 | CGCCGGGGGC | 1.03 ± 0.014
64 | CGCCGGGTGC | 2.75 ± 0.43
65 | CGCCGTGTCG | 0.927 ± 0.049
66 | CGCCTAAGGG | 0.993 ± 0.037
67 | CGCCTCAGGG | 1.14 ± 0.018
68 | CGCCTGGCCG | 0.9439 ± 0.0079
69 | CGCCTGGGAT | 1.03 ± 0.0027
70 | CGCGATGGCG | 0.98 ± 0.017
71 | CGCGATTATT | 1.09 ± 0.04
72 | CGCGCAGAT | 1.02 ± 0.025
73 | CGCGCTTTCA | 1.02 ± 0.027
74 | CGCGGAGGGG | 1.01 ± 0.049
75 | CGCGGAGTAG | 0.9869 ± 0.0043

Row | Sequence | switch fluorescence ratio
76 | CGCGGGCACT | 1.04 ± 0.04
77 | CGCGGGGGGC | 1.05 ± 0.084
78 | CGCGGGGTAG | 1.038 ± 0.0072
79 | CGCGGGGTGT | 1.05 ± 0.03
80 | CGCGGTAATT | 1.05 ± 0.063
81 | CGCGGTATCT | 1.02 ± 0.033
82 | CGCGGTATTA | 1.02 ± 0.013
83 | CGCGGTTAAA | 1.18 ± 0.19
84 | CGCGTGAAGA | 1.12 ± 0.11
85 | CGCGTTCGGA | 1.04 ± 0.015
86 | CGCTAAAGGG | 1.042 ± 0.0042
87 | CGCTAATCAA | 1.09 ± 0.042
88 | CGCTACGATG | 1.082 ± 0.0078
89 | CGCTAGGTTG | 1.01 ± 0.026
90 | CGCTATGGGA | 1.02 ± 0.026
91 | CGCTATTATA | 1.09 ± 0.052
92 | CGCTATTATT | 1.05 ± 0.04
93 | CGCTCCGCCT | 2.36 ± 0.11
94 | CGCTCCGGGC | 1.23 ± 0.058
95 | CGCTCTAAAA | 1.01 ± 0.011
96 | CGCTGAGATC | 1.016 ± 0.002
97 | CGCTGGGTAC | 2.24 ± 0.28
98 | CGCTGTCAGC | 1.002 ± 0.0037
99 | CGCTTAACCG | 1.04 ± 0.043
100 | CGCTTATACG | 1.78 ± 0.58

Row | Sequence | switch fluorescence ratio
101 | CGCTTATCAT | 0.98 ± 0.03
102 | CGCTTCATTA | 1.01 ± 0.063
103 | CGCTTGGCTC | 1.078 ± 0.0093
104 | CGCTTTGACT | 1.08 ± 0.021
105 | CGGAAAAAGT | 0.97 ± 0.013
106 | CGGAAAAATC | 1.53 ± 0.76
107 | CGGAAAAATT | 1.04 ± 0.12
108 | CGGAAACTTT | 1.0088 ± 0.00067
109 | CGGAAAGGGA | 1.01 ± 0.022
110 | CGGAAATGAA | 0.9824 ± 0.0028
111 | CGGAAGCTAA | 1.46 ± 0.16
112 | CGGAAGGCTA | 1.025 ± 0.0069
113 | CGGAAGGGGA | 1.05 ± 0.027
114 | CGGAAGTTCT | 0.993 ± 0.049
115 | CGGAATAGCT | 1.22 ± 0.024
116 | CGGAATTTC | 1.11 ± 0.05
117 | CGGACACGAA | 0.981 ± 0.022
118 | CGGACACGTT | 0.983 ± 0.052
119 | CGGACCAGCG | 0.965 ± 0.0086
120 | CGGACGAGAG | 0.998 ± 0.022
121 | CGGACGTGAC | 2.79 ± 0.2
122 | CGGACTAGGT | 1.02 ± 0.011
123 | CGGACTCATT | 1.09 ± 0.15
124 | CGGACTGGGC | 0.959 ± 0.051
125 | CGGAGAAAGG | 1.03 ± 0.069

Row | Sequence | switch fluorescence ratio
126 | CGGAGAAGTT | 1 ± 0.015
127 | CGGAGATCGG | 0.999 ± 0.013
128 | CGGAGGAAGG | 1.044 ± 0.0072
129 | CGGAGGCTTG | 1.01 ± 0.061
130 | CGGAGGGTGT | 0.997 ± 0.033
131 | CGGAGGTAGC | 1.03 ± 0.058
132 | CGGAGTCGCC | 1.01 ± 0.012
133 | CGGAGTTAAG | 1.07 ± 0.044
134 | CGGAGTTACA | 1.068 ± 0.0072
135 | CGGAGTTTTT | 0.9971 ± 0.0058
136 | CGGATACGGT | 0.997 ± 0.04
137 | CGGATAGTGC | 1.07 ± 0.11
138 | CGGATCGGAT | 0.976 ± 0.04
139 | CGGATGATAG | 1 ± 0.059
140 | CGGATGGAGG | 0.988 ± 0.042
141 | CGGATGGCCT | 1.03 ± 0.019
142 | CGGATGTTCA | 1.001 ± 0.0059
143 | CGGATTAGAG | 0.9641 ± 0.0032
144 | CGGATTGAAT | 1 ± 0.072
145 | CGGATTGTGT | 1.018 ± 0.0055
146 | CGGATTTAAG | 0.9979 ± 0.0066
147 | CGGATTTAGA | 0.987 ± 0.043
148 | CGGCAATGGT | 1.87 ± 1.1
149 | CGGCACCCTT | 0.997 ± 0.017
150 | CGGCAGCGGG | 1.03 ± 0.013

Row | Sequence | switch fluorescence ratio
151 | CGGCAGCTGA | 1 ± 0.011
152 | CGGCAGGGTG | 1.05 ± 0.0092
153 | CGGCAGGTAA | 1.05 ± 0.03
154 | CGGCATGGGT | 0.989 ± 0.018
155 | CGGCCAGGGG | 1.5 ± 0.09
156 | CGGCCATTTG | 0.993 ± 0.059
157 | CGGCCCCCGT | 1.4 ± 0.46
158 | CGGCCTGTGC | 1.03 ± 0.087
159 | CGGCGATGTT | 0.9867 ± 0.0076
160 | CGGCGATTTA | 1.003 ± 0.009
161 | CGGCGCCCA | 0.997 ± 0.01
162 | CGGCGCCTGT | 1.01 ± 0.05
163 | CGGCGGGCGA | 1.03 ± 0.02
164 | CGGCGGGGGA | 1.04 ± 0.043
165 | CGGCGTACAT | 1.04 ± 0.02
166 | CGGCGTAGTC | 1.02 ± 0.035
167 | CGGCGTGGGG | 1.03 ± 0.027
168 | CGGCTAACAA | 1.02 ± 0.013
169 | CGGCTCAACT | 1.01 ± 0.022
170 | CGGCTGGGTA | 1.014 ± 0.0054
171 | CGGCTGTGCT | 1 ± 0.022
172 | CGGCTTAAGT | 1.01 ± 0.035
173 | CGGCTTACAC | 1.12 ± 0.017
174 | CGGCTTAGTA | 0.988 ± 0.062
175 | CGGCTTATTC | 1.04 ± 0.015

Row | Sequence | switch fluorescence ratio
176 | CGGCTTGATA | 1.01 ± 0.033
177 | CGGCTTGGGG | 1 ± 0.015
178 | CGGCTTTTGG | 0.9617 ± 0.0084
179 | CGGGAAAGTC | 0.996 ± 0.027
180 | CGGGAAGAGC | 1.033 ± 0.0043
181 | CGGGAATCTC | 1.085 ± 0.0081
182 | CGGGAATTTC | 1.04 ± 0.027
183 | CGGGACATGA | 1.01 ± 0.012
184 | CGGGACCGGC | 1.04 ± 0.13
185 | CGGGACTCTT | 0.995 ± 0.017
186 | CGGGACTGCT | 0.9825 ± 0.0052
187 | CGGGAGAGTA | 1.54 ± 0.82
188 | CGGGAGCAGG | 1.09 ± 0.014
189 | CGGGAGGACT | 0.989 ± 0.057
190 | CGGGAGGTCG | 1.05 ± 0.082
191 | CGGGAGGTGT | 1.029 ± 0.0037
192 | CGGGAGTAGG | 1.04 ± 0.041
193 | CGGGAGTTAA | 1.01 ± 0.015
194 | CGGGAGTTGT | 0.99 ± 0.042
195 | CGGGATAGAT | 1 ± 0.039
196 | CGGGATATAA | 0.989 ± 0.022
197 | CGGGATATCG | 1.01 ± 0.029
198 | CGGGATGCGC | 1.04 ± 0.066
199 | CGGGATGTGC | 0.99328 ± 6e-06
200 | CGGGATTAGT | 0.99 ± 0.031
